From patent EP4806514A2 (Lepu Biopharma Co., Ltd., dated 2025)

T1: human CDH17, full length, expressed on cells (HEK293-hCDH17); AsPC-1, HCT-8, AGS, LoVo, KATO III, HT-29 tumor … (human, UniProt Q12864 23-832)
T1 construct: also called human CDH17 expressed on tumor cells
T1 sequence: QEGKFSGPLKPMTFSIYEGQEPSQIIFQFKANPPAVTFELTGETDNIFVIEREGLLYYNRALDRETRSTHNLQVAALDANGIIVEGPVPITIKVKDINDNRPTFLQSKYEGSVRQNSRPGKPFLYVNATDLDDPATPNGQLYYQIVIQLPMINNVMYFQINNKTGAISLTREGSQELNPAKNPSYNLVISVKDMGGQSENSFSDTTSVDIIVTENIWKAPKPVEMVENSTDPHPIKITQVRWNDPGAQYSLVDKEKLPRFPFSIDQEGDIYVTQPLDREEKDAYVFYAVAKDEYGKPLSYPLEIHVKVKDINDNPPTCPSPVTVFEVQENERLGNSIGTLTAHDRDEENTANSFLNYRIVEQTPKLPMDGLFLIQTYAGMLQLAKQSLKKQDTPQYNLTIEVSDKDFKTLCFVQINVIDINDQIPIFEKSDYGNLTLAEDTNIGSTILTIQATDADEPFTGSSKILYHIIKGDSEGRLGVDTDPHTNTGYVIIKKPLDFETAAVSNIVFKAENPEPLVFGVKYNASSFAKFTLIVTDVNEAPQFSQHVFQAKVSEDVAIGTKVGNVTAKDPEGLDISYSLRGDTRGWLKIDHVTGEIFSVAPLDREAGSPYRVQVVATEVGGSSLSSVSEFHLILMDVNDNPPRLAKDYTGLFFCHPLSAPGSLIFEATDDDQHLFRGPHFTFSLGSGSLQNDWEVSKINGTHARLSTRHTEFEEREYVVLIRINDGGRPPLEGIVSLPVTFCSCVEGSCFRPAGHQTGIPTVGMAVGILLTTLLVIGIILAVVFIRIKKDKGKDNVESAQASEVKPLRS

T2: hCDH17-his (full length extracellular domain of human CDH17, Q23-M787, his tag at the C-terminal) (human, UniProt Q12864 23-787)
T2 construct: Limits of the construct (UniProt Q12864, Q23-M787, C-terminal his tag); also called human CDH17-his protein; human CDH17 protein
T2 sequence: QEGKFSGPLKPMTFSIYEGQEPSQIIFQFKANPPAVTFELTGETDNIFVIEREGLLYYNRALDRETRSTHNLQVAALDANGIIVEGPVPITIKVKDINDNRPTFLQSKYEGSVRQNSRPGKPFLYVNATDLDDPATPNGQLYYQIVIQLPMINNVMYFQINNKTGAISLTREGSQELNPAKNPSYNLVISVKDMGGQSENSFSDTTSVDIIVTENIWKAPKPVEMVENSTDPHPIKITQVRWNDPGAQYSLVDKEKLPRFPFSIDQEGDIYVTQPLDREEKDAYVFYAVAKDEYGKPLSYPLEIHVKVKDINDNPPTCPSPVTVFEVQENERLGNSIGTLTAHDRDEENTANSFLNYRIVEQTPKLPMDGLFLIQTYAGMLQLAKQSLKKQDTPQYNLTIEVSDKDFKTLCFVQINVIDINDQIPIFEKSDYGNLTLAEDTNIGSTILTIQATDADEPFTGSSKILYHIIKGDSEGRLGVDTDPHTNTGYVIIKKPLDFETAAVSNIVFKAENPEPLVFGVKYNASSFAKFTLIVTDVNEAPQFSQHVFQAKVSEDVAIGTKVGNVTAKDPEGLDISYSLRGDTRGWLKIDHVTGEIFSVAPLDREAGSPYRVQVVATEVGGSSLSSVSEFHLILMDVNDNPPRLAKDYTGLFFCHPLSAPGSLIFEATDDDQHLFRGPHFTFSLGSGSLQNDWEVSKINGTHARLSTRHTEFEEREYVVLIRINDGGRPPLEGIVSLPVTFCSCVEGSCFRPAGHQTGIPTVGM


Tests used:
[1] = biological target: T1, human CDH17, full length, expressed on …; experiment: flow cytometry, HEK293-hCDH17 cells
[2] = biological target: T2, hCDH17-his (full length extracellular …); experiment: SPR (Biacore 8K), antibody captured on Protein A chip, hCDH17-his injected
[3] = biological target: T2, hCDH17-his (full length extracellular …); experiment: SPR (Biacore 8K), two doses, antibody captured on Protein A chip, hCDH17-his at 25 nM and 100 nM

Binder	binding result [1]	binding result [2]	binding result [3]
29H8D3-z12p1 (antibody, V domains shown, PTM-removed variant of 29H8D3-z12) VH: QVQLVQSGAEVKKPGASVKVSCKASGYTFTDHTIHWMRQRPGQGLEWIGYIYPREGYTKYNEKFKDRATLTADTSTSTAYMELRSLRSDDTAVYYCARFYYGYWYFDVWGQGTTVTVSS VL: DIVMTQSPLSLPVTPGEPASISCRSSKSLLRSNGNTYLYWFLQKPGQSPQVLIYRMSNLASGVPDRFSGSGSGTDFTLKISRVEAEDVGVYYCMQHLEYPFTFGQGTKLEIK	–	–	binds
29H8D3-z12p21 (antibody, V domains shown, PTM-removed variant of 29H8D3-z12; VH is that of 29H8D3-z12) VH: QVQLVQSGAEVKKPGASVKVSCKASGYTFTDHTIHWMRQRPGQGLEWIGYIYPRDGYTKYNEKFKDRATLTADTSTSTAYMELRSLRSDDTAVYYCARFYYGYWYFDVWGQGTTVTVSS VL: DIVMTQSPLSLPVTPGEPASISCRSSKSLLRSNGNTYLYWFLQKPGQSPQVLIYRMSNLASGVPDRFSGSGSGTDFTLKISRVEAEDVGVYYCIQHLEYPFTFGQGTKLEIK	–	–	binds
29H8D3-z12p15 (antibody, V domains shown, PTM-removed variant of 29H8D3-z12; VH is that of 29H8D3-z12) VH: QVQLVQSGAEVKKPGASVKVSCKASGYTFTDHTIHWMRQRPGQGLEWIGYIYPRDGYTKYNEKFKDRATLTADTSTSTAYMELRSLRSDDTAVYYCARFYYGYWYFDVWGQGTTVTVSS VL: DIVMTQSPLSLPVTPGEPASISCRSSKSLLRSNGNTYLYWFLQKPGQSPQVLIYRMSNLASGVPDRFSGSGSGTDFTLKISRVEAEDVGVYYCNQHLEYPFTFGQGTKLEIK	–	–	binds
29H8D3-z12p14 (antibody, V domains shown, PTM-removed variant of 29H8D3-z12; VH is that of 29H8D3-z12) VH: QVQLVQSGAEVKKPGASVKVSCKASGYTFTDHTIHWMRQRPGQGLEWIGYIYPRDGYTKYNEKFKDRATLTADTSTSTAYMELRSLRSDDTAVYYCARFYYGYWYFDVWGQGTTVTVSS VL: DIVMTQSPLSLPVTPGEPASISCRSSKSLLRSNGNTYLYWFLQKPGQSPQVLIYRMSNLASGVPDRFSGSGSGTDFTLKISRVEAEDVGVYYCTQHLEYPFTFGQGTKLEIK	–	–	binds
29H8D3-z12p10 (antibody, V domains shown, PTM-removed variant of 29H8D3-z12; VH is that of 29H8D3-z12) VH: QVQLVQSGAEVKKPGASVKVSCKASGYTFTDHTIHWMRQRPGQGLEWIGYIYPRDGYTKYNEKFKDRATLTADTSTSTAYMELRSLRSDDTAVYYCARFYYGYWYFDVWGQGTTVTVSS VL: DIVMTQSPLSLPVTPGEPASISCRSSKSLLRSNGNTYLYWFLQKPGQSPQVLIYRMSNLASGVPDRFSGSGSGTDFTLKISRVEAEDVGVYYCKQHLEYPFTFGQGTKLEIK	–	–	binds
29H8D3-z12p17 (antibody, V domains shown, PTM-removed variant of 29H8D3-z12; VH is that of 29H8D3-z12) VH: QVQLVQSGAEVKKPGASVKVSCKASGYTFTDHTIHWMRQRPGQGLEWIGYIYPRDGYTKYNEKFKDRATLTADTSTSTAYMELRSLRSDDTAVYYCARFYYGYWYFDVWGQGTTVTVSS VL: DIVMTQSPLSLPVTPGEPASISCRSSKSLLRSNGNTYLYWFLQKPGQSPQVLIYRMSNLASGVPDRFSGSGSGTDFTLKISRVEAEDVGVYYCGQHLEYPFTFGQGTKLEIK	–	–	binds
61C7F12-z8 (antibody, V domains shown, Humanized, human IgG1 constant region; also called 61C7F12 HU-VH1-1 / HU-VL1-3) VH: EVQLVESGGGLVKPGGSLRLSCAASGFTFSSYAMSWVRQAPGKGLEWVATINIGGSYTYYPDSVKGRFTISRDNAKNSLYLQMNSLRAEDTAVYYCARQEGRYWYFDVWGQGTTVTVSS VL: QIVLTQSPSFLSASVGDRVTITCTASSSVSSSYLHWYQQKPGKSPKLWIYSTSNLASGVPSRFSGSGSGTSYSLTISSLQPEDFATYYCHQFHRSPYTFGGGTKVEIK	binds	binds	–
61C7F12-z9 (antibody, V domains shown, Humanized, human IgG1 constant region; also called 61C7F12 HU-VH1-0 / HU-VL2-0) VH: EVQLVESGGGLVKPGGSLRLSCAASGFTFSSYAMSWVRQAPGKGLEWVSTINIGGSYTYYPDSVKGRFTISRDNAKNSLYLQMNSLRAEDTAVYYCARQEGRYWYFDVWGQGTTVTVSS VL: EIVLTQSPGTLSLSPGERATLSCTASSSVSSSYLHWYQQKPGQAPRLLIYSTSNLASGIPDRFSGSGSGTDFTLTISRLEPEDFAVYYCHQFHRSPYTFGGGTKVEIK	binds	binds	–

Next, values leading:

binding result [1]	binding result [2]	binding result [3]	Binder
binds	binds	–	69E3H11-z12 (antibody, V domains shown, Humanized, human IgG1 constant region; also called 69E3H11 HU-VH1-3 / HU-VL2-0) VH: QVQLVQSGAEVKKPGASVKVSCKASGYTFTTYWMHWVKQAPGQRLEWIGEIDPSDSYANYNQKFKGKATLTVDKSASTAYMELSSLRSEDTAVYYCALYYGYGDWGQGTTVTVSS VL: EIVLTQSPGTLSLSPGERATLSCSVSSSISSIHLHWYQQKPGQAPRLLIYRTSNLASGIPDRFSGSGSGTDFTLTISRLEPEDFAVYYCQQGSNLPLTFGQGTRLEIK
–	–	binds	29H8D3-z12p16 (antibody, V domains shown, PTM-removed variant of 29H8D3-z12; VH is that of 29H8D3-z12) VH: QVQLVQSGAEVKKPGASVKVSCKASGYTFTDHTIHWMRQRPGQGLEWIGYIYPRDGYTKYNEKFKDRATLTADTSTSTAYMELRSLRSDDTAVYYCARFYYGYWYFDVWGQGTTVTVSS VL: DIVMTQSPLSLPVTPGEPASISCRSSKSLLRSNGNTYLYWFLQKPGQSPQVLIYRMSNLASGVPDRFSGSGSGTDFTLKISRVEAEDVGVYYCQQHLEYPFTFGQGTKLEIK
–	–	binds	29H8D3-z12p9 (antibody, V domains shown, PTM-removed variant of 29H8D3-z12) VH: QVQLVQSGAEVKKPGASVKVSCKASGYTFTDHTIHWMRQRPGQGLEWIGYIYPRDGYTKYNEKFKDRATLTADTSTSTAYMELRSLRSDDTAVYYCARFYYGYWYFDVWGQGTTVTVSS VL: DIVMTQSPLSLPVTPGEPASISCRSSKSLLRSNGNTYLYWFLQKPGQSPQVLIYRMSNLASGVPDRFSGSGSGTDFTLKISRVEAEDVGVYYCHQHLEYPFTFGQGTKLEIK
–	–	binds	29H8D3-z12p13 (antibody, V domains shown, PTM-removed variant of 29H8D3-z12; VH is that of 29H8D3-z12) VH: QVQLVQSGAEVKKPGASVKVSCKASGYTFTDHTIHWMRQRPGQGLEWIGYIYPRDGYTKYNEKFKDRATLTADTSTSTAYMELRSLRSDDTAVYYCARFYYGYWYFDVWGQGTTVTVSS VL: DIVMTQSPLSLPVTPGEPASISCRSSKSLLRSNGNTYLYWFLQKPGQSPQVLIYRMSNLASGVPDRFSGSGSGTDFTLKISRVEAEDVGVYYCSQHLEYPFTFGQGTKLEIK
binds	binds	–	61C7F12-z10 (antibody, V domains shown, Humanized, human IgG1 constant region; also called 61C7F12 HU-VH1-1 / HU-VL2-0) VH: EVQLVESGGGLVKPGGSLRLSCAASGFTFSSYAMSWVRQAPGKGLEWVATINIGGSYTYYPDSVKGRFTISRDNAKNSLYLQMNSLRAEDTAVYYCARQEGRYWYFDVWGQGTTVTVSS VL: EIVLTQSPGTLSLSPGERATLSCTASSSVSSSYLHWYQQKPGQAPRLLIYSTSNLASGIPDRFSGSGSGTDFTLTISRLEPEDFAVYYCHQFHRSPYTFGGGTKVEIK
